Data: publication PMC3337772

Substrate: NCCc1ccc(O)c(O)c1
Assay: [3H]DA uptake kinetics
Type: cell-based, Rattus norvegicus

B1: dopamine transporter (DAT; rDAT) (Rattus norvegicus) (protein)
chain: MSKSKCSVGPMSSVVAPAKESNAVGPREVELILVKEQNGVQLTNSTLINPPQTPVEAQERETWSKKIDFLLSVIGFAVDLANVWRFPYLCYKNGGGAFLVPYLLFMVIAGMPLFYMELALGQFNREGAAGVWKICPVLKGVGFTVILISFYVGFFYNVIIAWALHYFFSSFTMDLPWIHCNNTWNSPNCSDAHASNSSDGLGLNDTFGTTPAAEYFERGVLHLHQSRGIDDLGPPRWQLTACLVLVIVLLYFSLWKGVKTSGKVVWITATMPYVVLTALLLRGVTLPGAMDGIRAYLSVDFYRLCEASVWIDAATQVCFSLGVGFGVLIAFSSYNKFTNNCYRDAIITTSINSLTSFSSGFVVFSFLGYMAQKHNVPIRDVATDGPGLIFIIYPEAIATLPLSSAWAAVFFLMLLTLGIDSAMGGMESVITGLVDEFQLLHRHRELFTLGIVLATFLLSLFCVTNGGIYVFTLLDHFAAGTSILFGVLIEAIGVAWFYGVQQFSDDIKQMTGQRPNLYWRLCWKLVSPCFLLYVVVVSIVTFRPPHYGAYIFPDWANALGWIIATSSMAMVPIYATYKFCSLPGSFREKLAYAITPEKDHQLVDRGEVRQFTLRHWLLL
- Km: 1.50 ± 0.10 µM
